Source: article PMC7530023

Target: unmodified (unphosphorylated) recombinant tau, human 1N4R isoform (human)
Assay: thioflavin S fluorescence aggregation assay

net increase of ThS fluorescence (9 μM tau) (units of ThS fluorescence): 41
net increase of ThS fluorescence (18 μM tau) (units of ThS fluorescence): 54
Substance: unmodified (unphosphorylated) recombinant tau, human 1N4R isoform (natural protein)
